Measured values as given in US20230067225A1.

Assays:
[1] = molecular target: B2Ar-heLOV-TEVcs-Gal4-V5 (SPARK transcription factor component) (UniProt P07550); test: cell-based or functional assay
[2] = molecular target: CD4-HA-CIBN-2xMKII-NNES-heLOV-GAL4 (FLARE transcription factor component) (Arabidopsis thaliana); test: cell-based or functional assay
[3] = molecular target: MBP-TEVcs(ENLYFQ/S)-eGFP [MBP: P0AEX9]
[4] = molecular target: MBP-TEVcs(ENLYFQ/S)-eGFP [MBP: P0AEX9]; test: Michaelis-Menten fit of the in-gel fluorescence cleavage assay, purified protease with the substrate titrated; the filing defines affinity as Km
[5] = molecular target: MBP-TEVcs(ENLYFQ/M)-eGFP [MBP: P0AEX9]

Row | Molecule | turnover rate (kapp) [5] | turnover rate (kapp), fold against wild-type TEVΔ [5] | further results
1 | HA-arrestin-TEVΔ/S153N (SPARK protease component with uTEV1Δ) (enzyme) | – | – | SPARK mCherry reporter, +/-agonist signal ratio [1]: 20.7
2 | eGFP-CaM-TEVΔ/S219V + S153N (FLARE protease component with uTEV1Δ) (enzyme) | – | – | FLARE mCherry reporter, high/low Ca+2 signal ratio [2]: 12; FLARE mCherry reporter, signal-to-background ratio [2]: 12.2
3 | uTEV3, full-length (HIS6-MBP-TEV I138T S153N T180A, S219V) (protein) GESLFKGPRDYNPISSTICHLTNESDGHTTSLYGIGFGPFIITNKHLFRRNNGTLLVQSLHGVFKVKNTTTLQQHLIDGRDMIIIRMPKDFPPFPQKLKFREPQREERICLVTTNFQTKSMSSMVSDTSCTFPSSDGTFWKHWIQTKDGQCGNPLVSTRDGFIVGIHSASNFTNTNNYFASVPKNFMELLTNQEAQQWVSGWRLNADSVLWGGHKVFMVKPEEPFQPVKEATQLMNELVYSQ | – | – | kcat/Km, fold against wild-type TEV [3]: a 2.8-fold increase in kcat/Km; fold improvement of Km against wild-type TEV [4]: Km improved by 3-fold
4 | wild-type TEVΔ (TEVΔ-S219V), purified with His tag from bacteria (protein) HHHHHHGESLFKGPRDYNPISSTICHLTNESDGHTTSLYGIGFGPFIITNKHLFRRNNGTLLVQSLHGVFKVKNTTTLQQHLIDGRDMIIIRMPKDFPPFPQKLKFREPQREERICLVTTNFQTKSMSSMVSDTSCTFPSSDGIFWKHWIQTKDGQCGSPLVSTRDGFIVGIHSASNFTNTNNYFTSVPKNFMELLTNQEAQQWVSGWRLNADSVLWGGHKVFMV | 0.01 s⁻¹ | – | –
5 | uTEV1Δ (TEVΔ/S219V + S153N), purified with His tag from bacteria (protein) HHHHHHGESLFKGPRDYNPISSTICHLTNESDGHTTSLYGIGFGPFIITNKHLFRRNNGTLLVQSLHGVFKVKNTTTLQQHLIDGRDMIIIRMPKDFPPFPQKLKFREPQREERICLVTTNFQTKSMSSMVSDTSCTFPSSDGIFWKHWIQTKDGQCGNPLVSTRDGFIVGIHSASNFTNTNNYFTSVPKNFMELLTNQEAQQWVSGWRLNADSVLWGGHKVFMV | 0.054 s⁻¹ | 5.4- and 6.2-fold higher than wild-type | –
6 | uTEV2Δ (TEVΔ/S219V + T30A + S153N), purified with His tag from bacteria (protein) HHHHHHGESLFKGPRDYNPISSTICHLTNESDGHTASLYGIGFGPFIITNKHLFRRNNGTLLVQSLHGVFKVKNTTTLQQHLIDGRDMIIIRMPKDFPPFPQKLKFREPQREERICLVTTNFQTKSMSSMVSDTSCTFPSSDGIFWKHWIQTKDGQCGNPLVSTRDGFIVGIHSASNFTNTNNYFTSVPKNFMELLTNQEAQQWVSGWRLNADSVLWGGHKVFMV | 0.062 s⁻¹ | 5.4- and 6.2-fold higher than wild-type | –
